# B1: Speckle-type POZ protein (Homo sapiens), O43791 (parent)
# chain: MSRVPSPPPPAEMSSGPVAESWCYTQIKVVKFSYMWTINNFSFCREEMGEVIKSSTFSSGANDKLKWCLRVNPKGLDEESKDYLSLYLLLVSCPKSEVRAKFKFSILNAKGEETKAMESQRAYRFVQGKDWGFKKFIRRDFLLDEANGLLPDDKLTLFCEVSVVQDSVNISGQNTMNMVKVPECRLADELGGLWENSRFTDCCLCVAGQEFQAHKAILAARSPVFSAMFEHEMEESKKNRVEINDVEPEVFKEMMCFIYTGKAPNLDKMADDLLAAADKYALERLKVMCEDALCSNLSVENAAEILILADLHSADQLKTQAVDFINYHASDVLETSGWKSMVVSHPHLVAEAYRSLASAQCPFLGPPRKRLKQS
# Variants of: B1
# Details: with vgfr2_human KDR
row,Variant,effect of a mutation on the interaction
1,MSRVPSPPPPAEMSSGPVAESWCYTQIKVVKFSYMWTINNFSFCREEMGEVIKSSTFSSGANDKLKWCLRVNPKGLDEESKDYLSLCLLLVSCPKSEVRAKFKFSILNAKGEETKAMESQRAYRFVQGKDWGFKKFIRRDFLLDEANGLLPDDKLTLFCEVSVVQDSVNISGQNTMNMVKVPECRLADELGGLWENSRFTDCCLCVAGQEFQAHKAILAARSPVFSAMFEHEMEESKKNRVEINDVEPEVFKEMMCFIYTGKAPNLDKMADDLLAAADKYALERLKVMCEDALCSNLSVENAAEILILADLHSADQLKTQAVDFINYHASDVLETSGWKSMVVSHPHLVAEAYRSLASAQCPFLGPPRKRLKQS [Y87C],with no effect

# Variants of: B1
# Details: with lims1_human LIMS1, P48059
# Chain of lims1_human LIMS1, P48059 (P48059 whole entry): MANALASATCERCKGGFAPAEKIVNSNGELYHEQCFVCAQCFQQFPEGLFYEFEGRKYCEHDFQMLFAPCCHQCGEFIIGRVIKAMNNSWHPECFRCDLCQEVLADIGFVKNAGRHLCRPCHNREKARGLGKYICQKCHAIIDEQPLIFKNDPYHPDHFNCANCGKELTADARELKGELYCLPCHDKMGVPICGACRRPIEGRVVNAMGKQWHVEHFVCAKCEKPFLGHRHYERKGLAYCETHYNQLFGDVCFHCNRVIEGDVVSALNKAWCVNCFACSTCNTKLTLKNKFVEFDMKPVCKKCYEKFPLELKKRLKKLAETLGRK
row,Variant,effect of a mutation on the interaction
1,MSRVPSPPPPAEMSSGPVAESWCYTQIKVVKFSYMWTINNFSFCREEMGEVIKSSTFSSGANDKLKWCLRVNPKGLDEESKDYLSLCLLLVSCPKSEVRAKFKFSILNAKGEETKAMESQRAYRFVQGKDWGFKKFIRRDFLLDEANGLLPDDKLTLFCEVSVVQDSVNISGQNTMNMVKVPECRLADELGGLWENSRFTDCCLCVAGQEFQAHKAILAARSPVFSAMFEHEMEESKKNRVEINDVEPEVFKEMMCFIYTGKAPNLDKMADDLLAAADKYALERLKVMCEDALCSNLSVENAAEILILADLHSADQLKTQAVDFINYHASDVLETSGWKSMVVSHPHLVAEAYRSLASAQCPFLGPPRKRLKQS [Y87C],with no effect

# Variants of: B1
# Details: with maga6_human MAGEA6, P43360
# Chain of maga6_human MAGEA6, P43360 (P43360 whole entry): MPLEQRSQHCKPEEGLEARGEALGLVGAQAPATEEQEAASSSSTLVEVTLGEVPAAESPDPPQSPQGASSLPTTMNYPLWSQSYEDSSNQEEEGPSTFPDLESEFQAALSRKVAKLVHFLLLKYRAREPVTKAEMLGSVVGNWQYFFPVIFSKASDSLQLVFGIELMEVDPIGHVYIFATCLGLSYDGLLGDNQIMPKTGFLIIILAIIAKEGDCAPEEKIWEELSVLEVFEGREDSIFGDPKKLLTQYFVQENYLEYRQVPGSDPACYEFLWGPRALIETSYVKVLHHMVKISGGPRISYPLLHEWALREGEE
row,Variant,effect of a mutation on the interaction
1,MSRVPSPPPPAEMSSGPVAESWCYTQIKVVKFSYMWTINNFSFCREEMGEVIKSSTFSSGANDKLKWCLRVNPKGLDEESKDYLSLCLLLVSCPKSEVRAKFKFSILNAKGEETKAMESQRAYRFVQGKDWGFKKFIRRDFLLDEANGLLPDDKLTLFCEVSVVQDSVNISGQNTMNMVKVPECRLADELGGLWENSRFTDCCLCVAGQEFQAHKAILAARSPVFSAMFEHEMEESKKNRVEINDVEPEVFKEMMCFIYTGKAPNLDKMADDLLAAADKYALERLKVMCEDALCSNLSVENAAEILILADLHSADQLKTQAVDFINYHASDVLETSGWKSMVVSHPHLVAEAYRSLASAQCPFLGPPRKRLKQS [Y87C],with no effect

# Variants of: B1
# Details: with m3k1_human MAP3K1, Q13233
# Chain of m3k1_human MAP3K1, Q13233 (Q13233 whole entry): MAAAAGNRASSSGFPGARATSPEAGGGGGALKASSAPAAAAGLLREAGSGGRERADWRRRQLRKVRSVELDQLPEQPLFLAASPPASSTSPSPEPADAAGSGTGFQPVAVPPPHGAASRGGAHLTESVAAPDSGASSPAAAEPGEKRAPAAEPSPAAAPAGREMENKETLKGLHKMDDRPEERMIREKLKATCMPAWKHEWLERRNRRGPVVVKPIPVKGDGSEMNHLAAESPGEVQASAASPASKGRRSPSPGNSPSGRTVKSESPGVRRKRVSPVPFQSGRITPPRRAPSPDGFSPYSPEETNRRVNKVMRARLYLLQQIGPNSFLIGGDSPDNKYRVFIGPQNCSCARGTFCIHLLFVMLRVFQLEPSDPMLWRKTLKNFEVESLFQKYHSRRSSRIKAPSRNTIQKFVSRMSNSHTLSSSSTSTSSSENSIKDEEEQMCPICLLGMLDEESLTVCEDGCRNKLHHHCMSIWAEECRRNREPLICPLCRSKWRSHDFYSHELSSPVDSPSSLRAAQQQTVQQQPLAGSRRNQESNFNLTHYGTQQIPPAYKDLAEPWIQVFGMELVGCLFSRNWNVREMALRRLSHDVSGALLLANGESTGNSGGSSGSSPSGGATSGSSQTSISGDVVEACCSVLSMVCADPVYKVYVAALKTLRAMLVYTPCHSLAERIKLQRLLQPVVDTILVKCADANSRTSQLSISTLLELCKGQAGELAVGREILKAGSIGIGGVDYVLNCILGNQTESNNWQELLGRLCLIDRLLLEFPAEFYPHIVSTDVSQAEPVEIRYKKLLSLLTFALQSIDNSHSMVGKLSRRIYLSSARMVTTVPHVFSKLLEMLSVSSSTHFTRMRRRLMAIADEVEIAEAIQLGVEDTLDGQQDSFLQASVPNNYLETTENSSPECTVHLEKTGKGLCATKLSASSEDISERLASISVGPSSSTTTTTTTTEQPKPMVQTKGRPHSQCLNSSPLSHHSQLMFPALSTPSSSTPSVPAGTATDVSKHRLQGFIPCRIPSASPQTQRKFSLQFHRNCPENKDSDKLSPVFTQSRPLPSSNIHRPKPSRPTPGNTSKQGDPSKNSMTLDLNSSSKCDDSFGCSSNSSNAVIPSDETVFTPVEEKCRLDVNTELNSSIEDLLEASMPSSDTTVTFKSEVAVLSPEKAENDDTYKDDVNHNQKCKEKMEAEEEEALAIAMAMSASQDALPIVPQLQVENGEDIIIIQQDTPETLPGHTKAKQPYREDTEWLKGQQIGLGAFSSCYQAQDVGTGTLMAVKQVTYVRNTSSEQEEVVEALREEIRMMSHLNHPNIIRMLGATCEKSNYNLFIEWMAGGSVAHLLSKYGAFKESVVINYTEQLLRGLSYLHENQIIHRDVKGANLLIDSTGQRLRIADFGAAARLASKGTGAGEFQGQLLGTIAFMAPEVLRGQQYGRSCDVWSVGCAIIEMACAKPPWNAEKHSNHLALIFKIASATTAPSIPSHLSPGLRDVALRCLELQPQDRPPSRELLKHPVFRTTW
row,Variant,effect of a mutation on the interaction
1,MSRVPSPPPPAEMSSGPVAESWCYTQIKVVKFSYMWTINNFSFCREEMGEVIKSSTFSSGANDKLKWCLRVNPKGLDEESKDYLSLCLLLVSCPKSEVRAKFKFSILNAKGEETKAMESQRAYRFVQGKDWGFKKFIRRDFLLDEANGLLPDDKLTLFCEVSVVQDSVNISGQNTMNMVKVPECRLADELGGLWENSRFTDCCLCVAGQEFQAHKAILAARSPVFSAMFEHEMEESKKNRVEINDVEPEVFKEMMCFIYTGKAPNLDKMADDLLAAADKYALERLKVMCEDALCSNLSVENAAEILILADLHSADQLKTQAVDFINYHASDVLETSGWKSMVVSHPHLVAEAYRSLASAQCPFLGPPRKRLKQS [Y87C],with no effect

# Variants of: B1
# Details: with mk10_human MAPK10, P53779
# Chain of mk10_human MAPK10, P53779 (P53779 whole entry): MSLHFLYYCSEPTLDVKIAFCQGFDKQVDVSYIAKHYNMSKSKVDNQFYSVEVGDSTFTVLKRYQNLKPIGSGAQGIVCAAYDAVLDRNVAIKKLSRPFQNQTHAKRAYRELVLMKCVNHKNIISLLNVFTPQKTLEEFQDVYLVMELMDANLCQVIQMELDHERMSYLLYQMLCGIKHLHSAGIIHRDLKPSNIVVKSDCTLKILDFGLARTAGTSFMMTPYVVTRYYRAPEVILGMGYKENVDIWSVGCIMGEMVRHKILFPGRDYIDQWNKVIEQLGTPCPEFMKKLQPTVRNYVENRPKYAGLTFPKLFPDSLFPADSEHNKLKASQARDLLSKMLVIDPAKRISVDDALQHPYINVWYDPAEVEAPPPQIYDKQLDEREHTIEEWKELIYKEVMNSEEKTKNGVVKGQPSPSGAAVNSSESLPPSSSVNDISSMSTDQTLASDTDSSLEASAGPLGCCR
row,Variant,effect of a mutation on the interaction
1,MSRVPSPPPPAEMSSGPVAESWCYTQIKVVKFSYMWTINNFSFCREEMGEVIKSSTFSSGANDKLKWCLRVNPKGLDEESKDYLSLCLLLVSCPKSEVRAKFKFSILNAKGEETKAMESQRAYRFVQGKDWGFKKFIRRDFLLDEANGLLPDDKLTLFCEVSVVQDSVNISGQNTMNMVKVPECRLADELGGLWENSRFTDCCLCVAGQEFQAHKAILAARSPVFSAMFEHEMEESKKNRVEINDVEPEVFKEMMCFIYTGKAPNLDKMADDLLAAADKYALERLKVMCEDALCSNLSVENAAEILILADLHSADQLKTQAVDFINYHASDVLETSGWKSMVVSHPHLVAEAYRSLASAQCPFLGPPRKRLKQS [Y87C],with no effect

# Variants of: B1
# Details: with mk14_human MAPK14, Q16539
# Chain of mk14_human MAPK14, Q16539 (Q16539 whole entry): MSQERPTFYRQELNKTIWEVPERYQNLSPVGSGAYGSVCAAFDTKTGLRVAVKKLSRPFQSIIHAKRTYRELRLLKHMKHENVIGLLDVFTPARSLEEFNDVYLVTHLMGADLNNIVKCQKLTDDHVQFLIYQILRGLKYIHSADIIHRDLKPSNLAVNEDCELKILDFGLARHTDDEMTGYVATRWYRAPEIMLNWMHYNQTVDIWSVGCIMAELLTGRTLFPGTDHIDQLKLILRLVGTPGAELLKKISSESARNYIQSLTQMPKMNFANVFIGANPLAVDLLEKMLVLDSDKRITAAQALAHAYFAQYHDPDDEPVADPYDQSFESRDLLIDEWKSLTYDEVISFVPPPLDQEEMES
row,Variant,effect of a mutation on the interaction
1,MSRVPSPPPPAEMSSGPVAESWCYTQIKVVKFSYMWTINNFSFCREEMGEVIKSSTFSSGANDKLKWCLRVNPKGLDEESKDYLSLCLLLVSCPKSEVRAKFKFSILNAKGEETKAMESQRAYRFVQGKDWGFKKFIRRDFLLDEANGLLPDDKLTLFCEVSVVQDSVNISGQNTMNMVKVPECRLADELGGLWENSRFTDCCLCVAGQEFQAHKAILAARSPVFSAMFEHEMEESKKNRVEINDVEPEVFKEMMCFIYTGKAPNLDKMADDLLAAADKYALERLKVMCEDALCSNLSVENAAEILILADLHSADQLKTQAVDFINYHASDVLETSGWKSMVVSHPHLVAEAYRSLASAQCPFLGPPRKRLKQS [Y87C],with no effect

# Variants of: B1
# Details: with mk03_human MAPK3, P27361
# Chain of mk03_human MAPK3, P27361 (P27361 whole entry): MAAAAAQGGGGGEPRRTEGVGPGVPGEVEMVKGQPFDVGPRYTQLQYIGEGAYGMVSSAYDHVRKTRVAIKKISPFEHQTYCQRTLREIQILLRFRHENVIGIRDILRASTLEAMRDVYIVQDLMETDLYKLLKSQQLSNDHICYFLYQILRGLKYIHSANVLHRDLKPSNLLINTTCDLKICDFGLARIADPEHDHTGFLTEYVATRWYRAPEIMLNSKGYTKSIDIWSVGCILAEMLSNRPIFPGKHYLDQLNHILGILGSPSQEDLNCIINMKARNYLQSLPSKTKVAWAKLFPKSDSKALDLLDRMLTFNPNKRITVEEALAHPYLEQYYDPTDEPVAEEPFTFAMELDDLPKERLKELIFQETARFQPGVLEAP
row,Variant,effect of a mutation on the interaction
1,MSRVPSPPPPAEMSSGPVAESWCYTQIKVVKFSYMWTINNFSFCREEMGEVIKSSTFSSGANDKLKWCLRVNPKGLDEESKDYLSLCLLLVSCPKSEVRAKFKFSILNAKGEETKAMESQRAYRFVQGKDWGFKKFIRRDFLLDEANGLLPDDKLTLFCEVSVVQDSVNISGQNTMNMVKVPECRLADELGGLWENSRFTDCCLCVAGQEFQAHKAILAARSPVFSAMFEHEMEESKKNRVEINDVEPEVFKEMMCFIYTGKAPNLDKMADDLLAAADKYALERLKVMCEDALCSNLSVENAAEILILADLHSADQLKTQAVDFINYHASDVLETSGWKSMVVSHPHLVAEAYRSLASAQCPFLGPPRKRLKQS [Y87C],with no effect

# Variants of: B1
# Details: with mk04_human MAPK4, P31152
# Chain of mk04_human MAPK4, P31152 (P31152 whole entry): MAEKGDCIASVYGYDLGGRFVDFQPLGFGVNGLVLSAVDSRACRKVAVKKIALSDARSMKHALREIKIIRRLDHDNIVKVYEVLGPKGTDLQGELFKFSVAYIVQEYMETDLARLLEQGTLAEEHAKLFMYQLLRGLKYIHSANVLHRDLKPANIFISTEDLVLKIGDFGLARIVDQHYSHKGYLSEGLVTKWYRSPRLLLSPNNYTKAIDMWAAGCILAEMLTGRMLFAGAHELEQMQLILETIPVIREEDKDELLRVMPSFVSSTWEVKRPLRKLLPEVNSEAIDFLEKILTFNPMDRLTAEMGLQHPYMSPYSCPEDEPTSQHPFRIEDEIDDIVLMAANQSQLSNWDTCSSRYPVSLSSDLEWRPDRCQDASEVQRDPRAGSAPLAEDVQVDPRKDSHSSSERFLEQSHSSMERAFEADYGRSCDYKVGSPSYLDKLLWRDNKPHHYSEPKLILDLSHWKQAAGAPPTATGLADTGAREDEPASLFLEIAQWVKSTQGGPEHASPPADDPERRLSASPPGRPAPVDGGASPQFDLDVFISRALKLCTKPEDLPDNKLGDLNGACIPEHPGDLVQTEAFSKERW
row,Variant,effect of a mutation on the interaction
1,MSRVPSPPPPAEMSSGPVAESWCYTQIKVVKFSYMWTINNFSFCREEMGEVIKSSTFSSGANDKLKWCLRVNPKGLDEESKDYLSLCLLLVSCPKSEVRAKFKFSILNAKGEETKAMESQRAYRFVQGKDWGFKKFIRRDFLLDEANGLLPDDKLTLFCEVSVVQDSVNISGQNTMNMVKVPECRLADELGGLWENSRFTDCCLCVAGQEFQAHKAILAARSPVFSAMFEHEMEESKKNRVEINDVEPEVFKEMMCFIYTGKAPNLDKMADDLLAAADKYALERLKVMCEDALCSNLSVENAAEILILADLHSADQLKTQAVDFINYHASDVLETSGWKSMVVSHPHLVAEAYRSLASAQCPFLGPPRKRLKQS [Y87C],with no effect
